The text below walks through data of publication PMC4501562, “Vpu Exploits the Cross-Talk between BST2 and the ILT7 Receptor to Suppress Anti-HIV-1 Responses by Plasmacytoid Dendritic Cells” (PLoS Pathogens, 2015).

Broadly, the Kd is the free concentration of one partner at which half of the binding sites on the other are occupied at equilibrium, for simple one-to-one binding. Higher therefore signals lower affinity. A word on the koff: it is a measure of how fast the partners let go of each other. A word on the kon: it is the rate constant with which the complex forms.

Experiment [1] has as its target ILT7 on the ILT7+ NFAT-GFP reporter mouse cell line (CT550) (human) (UniProt P59901).
For experiment [2], the target named is T1, baculovirus-expressed soluble ILT7 (residues 24 to 435) (human, UniProt P59901 24-435).
T1 construct: immunoglobulin-like transcript 7 (ILT7, LILRA4, CD85g), human, residues 24 to 435, from a synthetic codon-optimized gene; Cloned into the transfer vector pFL and transposed into the EMBacY bacmid; also called bacILT7; LILRA4
Description: SPR; Biacore 3000; GST-BST2 covalently immobilised on a CM5 chip by amine coupling (6550 RU); bacILT7 serially diluted and passed over at 10 ul/min; running buffer HBS-PE (10 mM HEPES pH 7.5, 150 mM NaCl, 3 mM EDTA, 0.005% Tween-20); GST-coated reference cell subtracted; 1:1 Langmuir model, local Rmax. Particulars: both partners purified. (Surface plasmon resonance follows binding to a sensor surface in real time, without labels.)

T1 sequence (P59901 24-435): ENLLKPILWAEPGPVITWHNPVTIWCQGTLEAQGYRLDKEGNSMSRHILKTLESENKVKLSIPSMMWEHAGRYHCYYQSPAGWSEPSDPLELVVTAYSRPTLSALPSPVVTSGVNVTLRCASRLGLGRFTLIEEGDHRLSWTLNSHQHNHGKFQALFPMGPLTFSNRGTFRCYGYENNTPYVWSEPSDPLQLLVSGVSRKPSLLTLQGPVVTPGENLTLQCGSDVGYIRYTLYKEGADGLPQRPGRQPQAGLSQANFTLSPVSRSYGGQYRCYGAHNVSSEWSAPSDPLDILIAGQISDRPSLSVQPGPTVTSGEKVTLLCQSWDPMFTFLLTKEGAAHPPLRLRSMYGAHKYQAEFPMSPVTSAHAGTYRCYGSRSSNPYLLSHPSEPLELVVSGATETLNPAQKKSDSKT
Sequence of ILT7 on the ILT7+ NFAT-GFP reporter mouse cell line (CT550) (human) (P59901 24-499): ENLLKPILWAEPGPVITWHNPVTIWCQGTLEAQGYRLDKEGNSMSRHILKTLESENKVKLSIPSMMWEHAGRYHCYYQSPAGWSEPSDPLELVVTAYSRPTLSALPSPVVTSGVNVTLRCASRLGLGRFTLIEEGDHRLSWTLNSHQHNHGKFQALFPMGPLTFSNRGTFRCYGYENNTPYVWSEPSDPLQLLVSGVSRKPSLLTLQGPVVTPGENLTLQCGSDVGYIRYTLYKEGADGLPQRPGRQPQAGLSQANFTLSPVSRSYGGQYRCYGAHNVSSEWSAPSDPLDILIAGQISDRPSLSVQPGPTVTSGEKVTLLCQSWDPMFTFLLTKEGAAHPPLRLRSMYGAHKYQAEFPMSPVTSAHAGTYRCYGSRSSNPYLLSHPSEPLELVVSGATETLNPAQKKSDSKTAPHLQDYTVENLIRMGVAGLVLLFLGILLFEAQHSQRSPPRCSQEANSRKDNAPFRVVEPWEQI

“WT BST2 expressed on HEK293T cells (from UniProt Q10589 1-161) (natural protein)”: in experiment [1], the percentage of NFAT-GFP positive ILT7+ reporter cells after co-culture with BST2-expressing HEK293T cells (no HIV) was 99%, the percentage of NFAT-GFP positive ILT7+ reporter cells after co-culture with BST2-expressing HEK293T cells producing WT HIV (Vpu present) was 74% and the percentage of NFAT-GFP positive ILT7+ reporter cells after co-culture with BST2-expressing HEK293T cells producing dU HIV (no Vpu) was 48%.

B1: recombinant GST-tagged ectodomain of BST2 (residues 47 to 159) (domain or fragment)
chain: KANSEACRDGLRAVMECRNVTHLLQQELTEAQKGFQDVEAQAATCNHTVMALMASLDAEKAQGQKKVEELEGEITTLNHKLQDASAEVERLRRENQVLSVRIADKKYYPSSQD
notes: BST2/Tetherin (CD317), human, extracellular domain, residues 47 to 159; a region common to the short and the long BST2 isoforms; Cloned into the pBADM30 expression vector as a His-tagged GST-N-terminus fusion protein; also called GST-BST2; BST2/Tetherin; not shown: GST, N-terminal, kept
In experiment [2], B1 showed a Kd of 2.33 µM, a koff of 0.00308 s⁻¹ and a kon of 1250 M⁻¹ s⁻¹.
